Experimental data from publication PMC4434323.

Columns and labels:
[1] = target: T1, Y67D8A.3 (Y67D8A.3) (Caenorhabditis elegans) (UniProt Q95XU1)
T1 sequence: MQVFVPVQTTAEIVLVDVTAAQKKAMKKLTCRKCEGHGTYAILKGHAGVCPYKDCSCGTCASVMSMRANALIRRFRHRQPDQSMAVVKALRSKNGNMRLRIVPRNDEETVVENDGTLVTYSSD

[2] = target: T2, nhr-7 (F54D1.4) (Caenorhabditis elegans) (UniProt Q20765)
T2 sequence: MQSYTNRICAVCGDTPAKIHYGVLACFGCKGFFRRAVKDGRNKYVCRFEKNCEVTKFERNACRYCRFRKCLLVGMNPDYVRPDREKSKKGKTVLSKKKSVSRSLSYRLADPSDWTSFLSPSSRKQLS

[3] = target: T3, nhr-3 (H01A20.1) (Caenorhabditis elegans) (UniProt Q9XTJ4)
T3 sequence: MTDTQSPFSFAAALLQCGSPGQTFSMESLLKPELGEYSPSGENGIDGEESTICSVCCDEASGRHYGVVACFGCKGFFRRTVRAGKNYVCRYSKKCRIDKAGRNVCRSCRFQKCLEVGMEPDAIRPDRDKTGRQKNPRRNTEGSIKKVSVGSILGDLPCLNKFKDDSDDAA

[4] = target: T4, daf-12 (F11A1.3) (Caenorhabditis elegans) (UniProt G5EFF5)
T4 sequence: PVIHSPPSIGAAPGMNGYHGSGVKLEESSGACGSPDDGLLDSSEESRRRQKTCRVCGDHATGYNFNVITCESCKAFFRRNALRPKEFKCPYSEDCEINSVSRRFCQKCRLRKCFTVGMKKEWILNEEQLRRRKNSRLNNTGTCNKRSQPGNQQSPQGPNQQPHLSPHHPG

[5] = target: T5, K02D7.2 (K02D7.2) (Caenorhabditis elegans) (UniProt O45103)
T5 sequence: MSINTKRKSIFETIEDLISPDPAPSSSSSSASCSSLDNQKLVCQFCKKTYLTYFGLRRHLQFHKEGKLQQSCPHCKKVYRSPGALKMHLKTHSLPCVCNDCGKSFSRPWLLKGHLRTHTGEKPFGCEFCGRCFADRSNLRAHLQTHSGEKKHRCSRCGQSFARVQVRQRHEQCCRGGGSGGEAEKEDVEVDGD

[6] = target: T6, ces-1 (F43G9.11) (Caenorhabditis elegans) (UniProt G5ECN8)
T6 sequence: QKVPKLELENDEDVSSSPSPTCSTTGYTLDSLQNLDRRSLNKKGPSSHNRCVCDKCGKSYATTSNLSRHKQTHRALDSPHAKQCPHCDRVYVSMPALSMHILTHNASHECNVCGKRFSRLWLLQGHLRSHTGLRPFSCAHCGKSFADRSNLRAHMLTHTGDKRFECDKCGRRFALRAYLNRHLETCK

[7] = target: nhr-34 (F58G6.5) (Caenorhabditis elegans) (UniProt Q21006)
[8] = target: T7, mab-3 (Y53C12B.5) (Caenorhabditis elegans) (UniProt O18214)
T7 sequence: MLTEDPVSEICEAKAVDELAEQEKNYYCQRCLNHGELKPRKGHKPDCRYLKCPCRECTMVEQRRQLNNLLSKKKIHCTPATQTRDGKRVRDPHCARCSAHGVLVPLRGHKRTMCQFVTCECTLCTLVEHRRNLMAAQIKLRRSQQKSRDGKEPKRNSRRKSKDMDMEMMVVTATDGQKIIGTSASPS

[9] = system: T8, C34D1.1 (C34D1.1) (Caenorhabditis elegans)
T8 sequence: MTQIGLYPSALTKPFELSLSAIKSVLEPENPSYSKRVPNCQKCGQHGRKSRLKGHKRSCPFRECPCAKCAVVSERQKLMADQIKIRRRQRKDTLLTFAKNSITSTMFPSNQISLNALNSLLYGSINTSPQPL

[10] = system: T9, dmd-3 (Y43F8C.10) (Caenorhabditis elegans)
T9 sequence: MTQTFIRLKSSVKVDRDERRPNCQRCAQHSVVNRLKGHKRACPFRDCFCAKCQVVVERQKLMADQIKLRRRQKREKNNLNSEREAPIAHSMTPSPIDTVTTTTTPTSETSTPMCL

[11] = target: T10, nhr-122 (Y41D4B.9) (Caenorhabditis elegans) (UniProt Q95Y09)
T10 sequence: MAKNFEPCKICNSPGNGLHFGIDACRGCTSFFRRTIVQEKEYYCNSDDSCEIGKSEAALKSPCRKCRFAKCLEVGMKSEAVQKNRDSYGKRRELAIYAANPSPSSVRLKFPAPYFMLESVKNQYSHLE

[12] = target: T11, nhr-154 (C13C4.2) (Caenorhabditis elegans) (UniProt O01931)
T11 sequence: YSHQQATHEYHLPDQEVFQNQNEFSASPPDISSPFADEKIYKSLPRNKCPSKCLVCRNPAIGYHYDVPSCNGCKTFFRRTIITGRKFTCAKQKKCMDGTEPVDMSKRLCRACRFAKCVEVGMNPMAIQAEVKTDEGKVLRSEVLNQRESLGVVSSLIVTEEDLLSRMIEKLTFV

[13] = target: T12, efl-2 (Y48C3A.17) (Caenorhabditis elegans) (UniProt A5HWA8)
T12 sequence: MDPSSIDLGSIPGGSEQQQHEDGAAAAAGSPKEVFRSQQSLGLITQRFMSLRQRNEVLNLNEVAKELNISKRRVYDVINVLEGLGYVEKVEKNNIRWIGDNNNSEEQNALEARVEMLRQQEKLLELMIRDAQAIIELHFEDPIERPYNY

[14] = target: T13, fkh-9 (K03C7.2) (Caenorhabditis elegans) (UniProt Q21187)
T13 sequence: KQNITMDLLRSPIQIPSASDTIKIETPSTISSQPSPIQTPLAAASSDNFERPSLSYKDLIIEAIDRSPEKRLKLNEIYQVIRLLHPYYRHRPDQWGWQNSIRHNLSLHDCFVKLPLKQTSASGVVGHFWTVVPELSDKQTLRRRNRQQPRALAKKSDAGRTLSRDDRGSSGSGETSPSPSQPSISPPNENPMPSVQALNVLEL

[15] = target: T14, let-381 (F26B1.7) (Caenorhabditis elegans) (UniProt P91278)
T14 sequence: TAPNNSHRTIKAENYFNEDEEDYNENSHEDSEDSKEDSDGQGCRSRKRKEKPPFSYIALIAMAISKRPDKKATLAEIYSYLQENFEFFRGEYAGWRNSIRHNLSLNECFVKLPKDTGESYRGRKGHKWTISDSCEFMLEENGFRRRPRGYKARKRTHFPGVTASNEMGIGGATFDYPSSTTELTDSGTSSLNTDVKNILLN

[16] = target: T15, lin-31 (K10G6.1) (Caenorhabditis elegans) (UniProt P34683)
T15 sequence: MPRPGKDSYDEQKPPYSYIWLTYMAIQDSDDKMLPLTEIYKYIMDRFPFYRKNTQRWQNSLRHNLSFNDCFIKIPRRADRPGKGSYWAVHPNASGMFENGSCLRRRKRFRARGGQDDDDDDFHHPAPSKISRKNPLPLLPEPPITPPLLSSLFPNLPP

[17] = target: T16, ztf-27 (T09F3.1) (Caenorhabditis elegans) (UniProt G5EDA0)
T16 sequence: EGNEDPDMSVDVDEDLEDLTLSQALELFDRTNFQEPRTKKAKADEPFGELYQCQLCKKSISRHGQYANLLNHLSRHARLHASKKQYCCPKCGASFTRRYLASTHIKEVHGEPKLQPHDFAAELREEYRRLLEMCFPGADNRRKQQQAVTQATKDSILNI

Sequence of nhr-34 (F58G6.5) (Caenorhabditis elegans) (Q21006 99-268): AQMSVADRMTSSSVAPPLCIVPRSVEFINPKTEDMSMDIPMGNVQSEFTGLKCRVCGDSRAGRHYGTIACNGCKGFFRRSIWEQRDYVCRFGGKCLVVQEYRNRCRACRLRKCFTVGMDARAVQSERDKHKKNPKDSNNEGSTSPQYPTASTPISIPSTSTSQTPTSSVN

For “AAAAGGTC (double strand) [8-mer AAAAGGTC]”, the binding signal (PBM E-score (-0.5 to 0.5)) [1] was 0.456.
Sequence “AAAGACCA (double strand) [8-mer AAAGACCA]” has a binding signal (PBM E-score (-0.5 to 0.5)) [2] of 0.472 and a binding signal (PBM E-score (-0.5 to 0.5)) [3] of 0.459.
In the case of “AAAGGTCA (double strand) [8-mer AAAGGTCA]”, the binding signal (PBM E-score (-0.5 to 0.5)) [4] is reported as 0.491, the binding signal (PBM E-score (-0.5 to 0.5)) [3] is reported as 0.479 and the binding signal (PBM E-score (-0.5 to 0.5)) [1] is reported as 0.493.
With “AAAGGTTG (double strand) [8-mer AAAGGTTG]” the binding signal (PBM E-score (-0.5 to 0.5)) [1] was 0.454.
“AACAGGTG (double strand) [8-mer AACAGGTG]” was tested, and the binding signal (PBM E-score (-0.5 to 0.5)) [5] was 0.488 and the binding signal (PBM E-score (-0.5 to 0.5)) [6] was 0.468.
“AAGACCAA (double strand) [8-mer AAGACCAA]” showed a binding signal (PBM E-score (-0.5 to 0.5)) [2] of 0.469, a binding signal (PBM E-score (-0.5 to 0.5)) [7] of 0.473 and a binding signal (PBM E-score (-0.5 to 0.5)) [3] of 0.457.
“AATGTTGC (double strand) [8-mer AATGTTGC]” showed a binding signal (PBM E-score (-0.5 to 0.5)) [8] of 0.498, a binding signal (PBM E-score (-0.5 to 0.5)) [9] of 0.47 and a binding signal (PBM E-score (-0.5 to 0.5)) [10] of 0.465.
Work on “AATGTTTC (double strand) [8-mer AATGTTTC]” yielded a binding signal (PBM E-score (-0.5 to 0.5)) [9] of 0.497 and a binding signal (PBM E-score (-0.5 to 0.5)) [10] of 0.482.
Work on “ACCTGTAG (double strand) [8-mer ACCTGTAG]” yielded a binding signal (PBM E-score (-0.5 to 0.5)) [6] of 0.452.
In the case of “ACCTGTTG (double strand) [8-mer ACCTGTTG]”, the binding signal (PBM E-score (-0.5 to 0.5)) [6] is reported as 0.493.
Sequence “ACTCCAAT (double strand) [8-mer ACTCCAAT]” has a binding signal (PBM E-score (-0.5 to 0.5)) [11] of 0.464.
Sequence “ACTTGTTG (double strand) [8-mer ACTTGTTG]” has a binding signal (PBM E-score (-0.5 to 0.5)) [6] of 0.465.
“AGAAACAT (double strand) [8-mer AGAAACAT]” gave a binding signal (PBM E-score (-0.5 to 0.5)) [9] of 0.492 and a binding signal (PBM E-score (-0.5 to 0.5)) [10] of 0.466.
Work on “AGACTCCA (double strand) [8-mer AGACTCCA]” yielded a binding signal (PBM E-score (-0.5 to 0.5)) [11] of 0.457.
Work on “AGCAACAG (double strand) [8-mer AGCAACAG]” yielded a binding signal (PBM E-score (-0.5 to 0.5)) [6] of 0.466.
Work on “AGGCGCCA (double strand) [8-mer AGGCGCCA]” yielded a binding signal (PBM E-score (-0.5 to 0.5)) [12] of 0.452.
In the case of “ATACTCCA (double strand) [8-mer ATACTCCA]”, the binding signal (PBM E-score (-0.5 to 0.5)) [11] is reported as 0.456.
“ATGTTGCA (double strand) [8-mer ATGTTGCA]” showed a binding signal (PBM E-score (-0.5 to 0.5)) [8] of 0.497 and a binding signal (PBM E-score (-0.5 to 0.5)) [10] of 0.459.
“ATGTTTCA (double strand) [8-mer ATGTTTCA]” was tested, and the binding signal (PBM E-score (-0.5 to 0.5)) [9] was 0.498 and the binding signal (PBM E-score (-0.5 to 0.5)) [10] was 0.479.
“CCTGTTGC (double strand) [8-mer CCTGTTGC]” gave a binding signal (PBM E-score (-0.5 to 0.5)) [6] of 0.479.
“GAAAGGTC (double strand) [8-mer GAAAGGTC]” gave a binding signal (PBM E-score (-0.5 to 0.5)) [1] of 0.461.
In the case of “GACTCCAA (double strand) [8-mer GACTCCAA]”, the binding signal (PBM E-score (-0.5 to 0.5)) [11] is reported as 0.459.
Work on “GCGCCAAA (double strand) [8-mer GCGCCAAA]” yielded a binding signal (PBM E-score (-0.5 to 0.5)) [12] of 0.453.
Work on “GGCGCCAA (double strand) [8-mer GGCGCCAA]” yielded a binding signal (PBM E-score (-0.5 to 0.5)) [13] of 0.488 and a binding signal (PBM E-score (-0.5 to 0.5)) [12] of 0.46.
With “GTAAACAA (double strand) [8-mer GTAAACAA]” the binding signal (PBM E-score (-0.5 to 0.5)) [14] was 0.492, the binding signal (PBM E-score (-0.5 to 0.5)) [15] was 0.486 and the binding signal (PBM E-score (-0.5 to 0.5)) [16] was 0.47.
Sequence “TAAACAAA (double strand) [8-mer TAAACAAA]” has a binding signal (PBM E-score (-0.5 to 0.5)) [15] of 0.493 and a binding signal (PBM E-score (-0.5 to 0.5)) [16] of 0.473.
Sequence “TACTCCAA (double strand) [8-mer TACTCCAA]” has a binding signal (PBM E-score (-0.5 to 0.5)) [11] of 0.459.
Sequence “TATTTACA (double strand) [8-mer TATTTACA]” has a binding signal (PBM E-score (-0.5 to 0.5)) [16] of 0.474.
With “TGGCGCCA (double strand) [8-mer TGGCGCCA]” the binding signal (PBM E-score (-0.5 to 0.5)) [13] was 0.492, the binding signal (PBM E-score (-0.5 to 0.5)) [12] was 0.474 and the binding signal (PBM E-score (-0.5 to 0.5)) [17] was 0.491.
Work on “TGTAAACA (double strand) [8-mer TGTAAACA]” yielded a binding signal (PBM E-score (-0.5 to 0.5)) [14] of 0.485, a binding signal (PBM E-score (-0.5 to 0.5)) [15] of 0.461 and a binding signal (PBM E-score (-0.5 to 0.5)) [16] of 0.476.
